In patent publication US20250092148A1 (Kyowa Kirin, published 2025):
Changes are numbered by the printed parent chain.

Experiments:
Assay in all cases: flow cytometry, Fab 0.25 µg/mL on HEK-293T cells expressing the mutant
human CD116 L249A = target: T1, human CD116 L249A (human, UniProt P15509 23-400)
T1 construct: whole, on cells
T1 sequence (looked up): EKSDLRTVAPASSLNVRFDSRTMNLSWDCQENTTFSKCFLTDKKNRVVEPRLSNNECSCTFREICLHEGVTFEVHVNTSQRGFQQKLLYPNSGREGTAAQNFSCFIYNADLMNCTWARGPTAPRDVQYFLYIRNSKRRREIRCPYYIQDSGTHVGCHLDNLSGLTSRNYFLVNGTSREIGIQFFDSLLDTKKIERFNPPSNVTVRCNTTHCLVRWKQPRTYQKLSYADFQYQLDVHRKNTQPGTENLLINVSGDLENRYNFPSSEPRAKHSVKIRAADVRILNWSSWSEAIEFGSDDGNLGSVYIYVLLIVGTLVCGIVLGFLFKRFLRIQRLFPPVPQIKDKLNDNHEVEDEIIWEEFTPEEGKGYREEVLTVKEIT

human CD116 R302A = target: T2, human CD116 R302A (human, UniProt P15509 23-400)
T2 construct: whole, on cells
T2 sequence (looked up): T1 sequence (looked up) with A227L, R280A

human CD116 F251A = target: T3, human CD116 F251A (human, UniProt P15509 23-400)
T3 construct: whole, on cells
T3 sequence (looked up): T1 sequence (looked up) with A227L, F229A

human CD116 D300A = target: T4, human CD116 D300A (human, UniProt P15509 23-400)
T4 construct: whole, on cells
T4 sequence (looked up): T1 sequence (looked up) with A227L, D278A

human CD116 K213A = target: T5, human CD116 K213A (human, UniProt P15509 23-400)
T5 construct: whole, on cells
T5 sequence (looked up): T1 sequence (looked up) with K191A, A227L

human CD116 Y248A = target: T6, human CD116 Y248A (human, UniProt P15509 23-400)
T6 construct: whole, on cells
T6 sequence (looked up): T1 sequence (looked up) with Y226A, A227L

B1: anti-CD116 antibody 116-408, Fab (Fab, V domains shown)
VH: EVQLVQSGAEVKKPGASVKVSCKVSGYTLTDLSMHWVRQAPGKGLEWMGGFDPEDGERIYAQKFQGRVTMTEDTSTDTAYMELSSLRSEDTAVYYCATGLFYYYYGMDVWGQGTMVTVSS
VL: not shown
Binding Reactivity (% WT) (human CD116 L249A): 92.4 % WT | Binding Reactivity (% WT) (human CD116 R302A): 93.8 % WT | Binding Reactivity (% WT) (human CD116 F251A): 99.3 % WT | Binding Reactivity (% WT) (human CD116 D300A): 84.8 % WT | Binding Reactivity (% WT) (human CD116 K213A): 98.4 % WT | Binding Reactivity (% WT) (human CD116 Y248A): 78.2 % WT
